Laboratory results from patent publication US20230406885A1, “CYCLIC PEPTIDES FOR TRAPPING INTERLEUKIN-1 BETA” (MERCK SHARP & DOHME LLC, priority 2022, published 2023).
*1 amine or outer side, *2 acyl side, *3 side chain or, on linkers, in order; H or OH if unused. [ ]: non-standard residue; d: D form. TyrEtNAc = L-tyrosine O-ethyl acetamide, (S)-3-(4-(2-acetamidoethoxy)phenyl)-2-aminopropanoic acid, CC(=O)NCCOc1ccc(C[C@H](N[*:1])C(=O)[*:2])cc1; Trp(4-Cl)(βS-Me) = C[C@@H](c1c[nH]c2cccc(Cl)c12)[C@H](N)C(=O)O; Pro(trans-4-NH2) = O=C([C@@H]1C[C@@H](N[*:3])CN1[*:1])[*:2]; Bip(4'-COOH) = N[C@@H](Cc1ccc(-c2ccc(C(=O)O)cc2)cc1)C(=O)O; 1Nal(3S-Me) = C[C@@H](c1cccc2ccccc12)[C@H](N)C(=O)O; Phe(4-COOH) = N[C@@H](Cc1ccc(C(=O)O)cc1)C(=O)O; h3Pal(5-CN) = N#Cc1cncc(CC[C@H](N)C(=O)O)c1; Phe(4-NH2) = Nc1ccc(C[C@H](N)C(=O)O)cc1; 1Nal = N[C@@H](Cc1cccc2ccccc12)C(=O)O; hTyr = N[C@@H](CCc1ccc(O)cc1)C(=O)O; 4Pal = N[C@@H](Cc1ccncc1)C(=O)O; dDab = NCC[C@@H](N)C(=O)O; Orn = NCCC[C@H](N)C(=O)O; dNMeA = CN[C@H](C)C(=O)O; Dab = NCC[C@H](N)C(=O)O; Dap = NC[C@H](N)C(=O)O; Aib = CC(C)(N)C(=O)O

B1: SEQ ID NO: 134 (Example No. 134) (peptide)
peptide: cyclo([TyrEtNAc]W[Phe(4-COOH)]G[Pro(trans-4-NH2)][Trp(4-Cl)(βS-Me)]D[dNMeA]G[Bip(4'-COOH)][4Pal][Dab][dA][hTyr])
SMILES: CC(=O)NCCOc1ccc(C[C@@H]2NC(=O)[C@H](CCc3ccc(O)cc3)NC(=O)[C@@H](C)NC(=O)[C@H](CCN)NC(=O)[C@H](Cc3ccncc3)NC(=O)[C@H](Cc3ccc(-c4ccc(C(=O)O)cc4)cc3)NC(=O)CNC(=O)[C@@H](C)N(C)C(=O)[C@H](CC(=O)O)NC(=O)[C@H]([C@@H](C)c3c[nH]c4cccc(Cl)c34)NC(=O)[C@@H]3C[C@@H](N)CN3C(=O)CNC(=O)[C@H](Cc3ccc(C(=O)O)cc3)NC(=O)[C@H](Cc3c[nH]c4ccccc34)NC2=O)cc1
B2: SEQ ID NO: 124 (Example No. 124) (peptide)
peptide: cyclo([TyrEtNAc]W[Phe(4-COOH)]G[Pro(trans-4-NH2)][1Nal(3S-Me)]D[dNMeA]G[Bip(4'-COOH)]WL[dA]A)
SMILES: CC(=O)NCCOc1ccc(C[C@@H]2NC(=O)[C@H](C)NC(=O)[C@@H](C)NC(=O)[C@H](CC(C)C)NC(=O)[C@H](Cc3c[nH]c4ccccc34)NC(=O)[C@H](Cc3ccc(-c4ccc(C(=O)O)cc4)cc3)NC(=O)CNC(=O)[C@@H](C)N(C)C(=O)[C@H](CC(=O)O)NC(=O)[C@H]([C@@H](C)c3cccc4ccccc34)NC(=O)[C@@H]3C[C@@H](N)CN3C(=O)CNC(=O)[C@H](Cc3ccc(C(=O)O)cc3)NC(=O)[C@H](Cc3c[nH]c4ccccc34)NC2=O)cc1
B3: SEQ ID NO: 129 (Example No. 129) (peptide)
peptide: cyclo([TyrEtNAc]W[Phe(4-COOH)]G[Pro(trans-4-NH2)][1Nal(3S-Me)]N[dNMeA]G[Bip(4'-COOH)]W[Dap][dA][hTyr])
SMILES: CC(=O)NCCOc1ccc(C[C@@H]2NC(=O)[C@H](CCc3ccc(O)cc3)NC(=O)[C@@H](C)NC(=O)[C@H](CN)NC(=O)[C@H](Cc3c[nH]c4ccccc34)NC(=O)[C@H](Cc3ccc(-c4ccc(C(=O)O)cc4)cc3)NC(=O)CNC(=O)[C@@H](C)N(C)C(=O)[C@H](CC(N)=O)NC(=O)[C@H]([C@@H](C)c3cccc4ccccc34)NC(=O)[C@@H]3C[C@@H](N)CN3C(=O)CNC(=O)[C@H](Cc3ccc(C(=O)O)cc3)NC(=O)[C@H](Cc3c[nH]c4ccccc34)NC2=O)cc1
B4: SEQ ID NO: 133 (Example No. 133) (peptide)
peptide: cyclo([TyrEtNAc]W[Phe(4-COOH)]G[Pro(trans-4-NH2)][Trp(4-Cl)(βS-Me)]D[dNMeA]G[Bip(4'-COOH)][1Nal]S[dA][Phe(4-NH2)])
SMILES: CC(=O)NCCOc1ccc(C[C@@H]2NC(=O)[C@H](Cc3ccc(N)cc3)NC(=O)[C@@H](C)NC(=O)[C@H](CO)NC(=O)[C@H](Cc3cccc4ccccc34)NC(=O)[C@H](Cc3ccc(-c4ccc(C(=O)O)cc4)cc3)NC(=O)CNC(=O)[C@@H](C)N(C)C(=O)[C@H](CC(=O)O)NC(=O)[C@H]([C@@H](C)c3c[nH]c4cccc(Cl)c34)NC(=O)[C@@H]3C[C@@H](N)CN3C(=O)CNC(=O)[C@H](Cc3ccc(C(=O)O)cc3)NC(=O)[C@H](Cc3c[nH]c4ccccc34)NC2=O)cc1
B5: SEQ ID NO: 123 (Example No. 123) (peptide)
peptide: cyclo([TyrEtNAc]W[Phe(4-COOH)]G[Pro(trans-4-NH2)][1Nal(3S-Me)]D[dNMeA]G[Bip(4'-COOH)]WG[dDab][hTyr])
SMILES: CC(=O)NCCOc1ccc(C[C@@H]2NC(=O)[C@H](CCc3ccc(O)cc3)NC(=O)[C@@H](CCN)NC(=O)CNC(=O)[C@H](Cc3c[nH]c4ccccc34)NC(=O)[C@H](Cc3ccc(-c4ccc(C(=O)O)cc4)cc3)NC(=O)CNC(=O)[C@@H](C)N(C)C(=O)[C@H](CC(=O)O)NC(=O)[C@H]([C@@H](C)c3cccc4ccccc34)NC(=O)[C@@H]3C[C@@H](N)CN3C(=O)CNC(=O)[C@H](Cc3ccc(C(=O)O)cc3)NC(=O)[C@H](Cc3c[nH]c4ccccc34)NC2=O)cc1
B6: SEQ ID NO: 128 (Example No. 128) (peptide)
peptide: cyclo([TyrEtNAc]W[Phe(4-COOH)]G[Pro(trans-4-NH2)][1Nal(3S-Me)]D[dNMeA]G[Bip(4'-COOH)]WS[dA][hTyr])
SMILES: CC(=O)NCCOc1ccc(C[C@@H]2NC(=O)[C@H](CCc3ccc(O)cc3)NC(=O)[C@@H](C)NC(=O)[C@H](CO)NC(=O)[C@H](Cc3c[nH]c4ccccc34)NC(=O)[C@H](Cc3ccc(-c4ccc(C(=O)O)cc4)cc3)NC(=O)CNC(=O)[C@@H](C)N(C)C(=O)[C@H](CC(=O)O)NC(=O)[C@H]([C@@H](C)c3cccc4ccccc34)NC(=O)[C@@H]3C[C@@H](N)CN3C(=O)CNC(=O)[C@H](Cc3ccc(C(=O)O)cc3)NC(=O)[C@H](Cc3c[nH]c4ccccc34)NC2=O)cc1
B7: SEQ ID NO: 130 (Example No. 130) (peptide)
peptide: cyclo([TyrEtNAc]W[Phe(4-COOH)]G[Pro(trans-4-NH2)][Trp(4-Cl)(βS-Me)]D[dNMeA]G[Bip(4'-COOH)][1Nal][Dap][Aib][h3Pal(5-CN)])
SMILES: CC(=O)NCCOc1ccc(C[C@@H]2NC(=O)[C@H](CCc3cncc(C#N)c3)NC(=O)C(C)(C)NC(=O)[C@H](CN)NC(=O)[C@H](Cc3cccc4ccccc34)NC(=O)[C@H](Cc3ccc(-c4ccc(C(=O)O)cc4)cc3)NC(=O)CNC(=O)[C@@H](C)N(C)C(=O)[C@H](CC(=O)O)NC(=O)[C@H]([C@@H](C)c3c[nH]c4cccc(Cl)c34)NC(=O)[C@@H]3C[C@@H](N)CN3C(=O)CNC(=O)[C@H](Cc3ccc(C(=O)O)cc3)NC(=O)[C@H](Cc3c[nH]c4ccccc34)NC2=O)cc1
B8: SEQ ID NO: 126 (Example No. 126) (peptide)
peptide: cyclo([TyrEtNAc]W[Phe(4-COOH)]G[Pro(trans-4-NH2)][1Nal(3S-Me)]D[dNMeA]G[Bip(4'-COOH)]WL[dDab][hTyr])
SMILES: CC(=O)NCCOc1ccc(C[C@@H]2NC(=O)[C@H](CCc3ccc(O)cc3)NC(=O)[C@@H](CCN)NC(=O)[C@H](CC(C)C)NC(=O)[C@H](Cc3c[nH]c4ccccc34)NC(=O)[C@H](Cc3ccc(-c4ccc(C(=O)O)cc4)cc3)NC(=O)CNC(=O)[C@@H](C)N(C)C(=O)[C@H](CC(=O)O)NC(=O)[C@H]([C@@H](C)c3cccc4ccccc34)NC(=O)[C@@H]3C[C@@H](N)CN3C(=O)CNC(=O)[C@H](Cc3ccc(C(=O)O)cc3)NC(=O)[C@H](Cc3c[nH]c4ccccc34)NC2=O)cc1
B9: SEQ ID NO: 132 (Example No. 132) (peptide)
peptide: cyclo([TyrEtNAc]W[Phe(4-COOH)]G[Pro(trans-4-NH2)][Trp(4-Cl)(βS-Me)]D[dNMeA]G[Bip(4'-COOH)][1Nal][Orn][Aib]G)
SMILES: CC(=O)NCCOc1ccc(C[C@@H]2NC(=O)CNC(=O)C(C)(C)NC(=O)[C@H](CCCN)NC(=O)[C@H](Cc3cccc4ccccc34)NC(=O)[C@H](Cc3ccc(-c4ccc(C(=O)O)cc4)cc3)NC(=O)CNC(=O)[C@@H](C)N(C)C(=O)[C@H](CC(=O)O)NC(=O)[C@H]([C@@H](C)c3c[nH]c4cccc(Cl)c34)NC(=O)[C@@H]3C[C@@H](N)CN3C(=O)CNC(=O)[C@H](Cc3ccc(C(=O)O)cc3)NC(=O)[C@H](Cc3c[nH]c4ccccc34)NC2=O)cc1
B10: SEQ ID NO: 125 (Example No. 125) (peptide)
peptide: cyclo([TyrEtNAc]W[Phe(4-COOH)]G[Pro(trans-4-NH2)][1Nal(3S-Me)]D[dNMeA]G[Bip(4'-COOH)]WL[dA][hTyr])
SMILES: CC(=O)NCCOc1ccc(C[C@@H]2NC(=O)[C@H](CCc3ccc(O)cc3)NC(=O)[C@@H](C)NC(=O)[C@H](CC(C)C)NC(=O)[C@H](Cc3c[nH]c4ccccc34)NC(=O)[C@H](Cc3ccc(-c4ccc(C(=O)O)cc4)cc3)NC(=O)CNC(=O)[C@@H](C)N(C)C(=O)[C@H](CC(=O)O)NC(=O)[C@H]([C@@H](C)c3cccc4ccccc34)NC(=O)[C@@H]3C[C@@H](N)CN3C(=O)CNC(=O)[C@H](Cc3ccc(C(=O)O)cc3)NC(=O)[C@H](Cc3c[nH]c4ccccc34)NC2=O)cc1
B11: SEQ ID NO: 131 (Example No. 131) (peptide)
peptide: cyclo([TyrEtNAc]W[Phe(4-COOH)]G[Pro(trans-4-NH2)][Trp(4-Cl)(βS-Me)]D[dNMeA]G[Bip(4'-COOH)][1Nal]L[dA][hTyr])
SMILES: CC(=O)NCCOc1ccc(C[C@@H]2NC(=O)[C@H](CCc3ccc(O)cc3)NC(=O)[C@@H](C)NC(=O)[C@H](CC(C)C)NC(=O)[C@H](Cc3cccc4ccccc34)NC(=O)[C@H](Cc3ccc(-c4ccc(C(=O)O)cc4)cc3)NC(=O)CNC(=O)[C@@H](C)N(C)C(=O)[C@H](CC(=O)O)NC(=O)[C@H]([C@@H](C)c3c[nH]c4cccc(Cl)c34)NC(=O)[C@@H]3C[C@@H](N)CN3C(=O)CNC(=O)[C@H](Cc3ccc(C(=O)O)cc3)NC(=O)[C@H](Cc3c[nH]c4ccccc34)NC2=O)cc1
B12: SEQ ID NO: 127 (Example No. 127) (peptide)
peptide: cyclo([TyrEtNAc]W[Phe(4-COOH)]G[Pro(trans-4-NH2)][1Nal(3S-Me)]D[dNMeA]G[Bip(4'-COOH)]W[Orn][Aib][hTyr])
SMILES: CC(=O)NCCOc1ccc(C[C@@H]2NC(=O)[C@H](CCc3ccc(O)cc3)NC(=O)C(C)(C)NC(=O)[C@H](CCCN)NC(=O)[C@H](Cc3c[nH]c4ccccc34)NC(=O)[C@H](Cc3ccc(-c4ccc(C(=O)O)cc4)cc3)NC(=O)CNC(=O)[C@@H](C)N(C)C(=O)[C@H](CC(=O)O)NC(=O)[C@H]([C@@H](C)c3cccc4ccccc34)NC(=O)[C@@H]3C[C@@H](N)CN3C(=O)CNC(=O)[C@H](Cc3ccc(C(=O)O)cc3)NC(=O)[C@H](Cc3c[nH]c4ccccc34)NC2=O)cc1
B13: SEQ ID NO: 135 (Example No. 135) (peptide)
peptide: cyclo([TyrEtNAc]W[Phe(4-COOH)]G[Pro(trans-4-NH2)][Trp(4-Cl)(βS-Me)]D[dNMeA]G[Bip(4'-COOH)][4Pal]L[dA][hTyr])
SMILES: CC(=O)NCCOc1ccc(C[C@@H]2NC(=O)[C@H](CCc3ccc(O)cc3)NC(=O)[C@@H](C)NC(=O)[C@H](CC(C)C)NC(=O)[C@H](Cc3ccncc3)NC(=O)[C@H](Cc3ccc(-c4ccc(C(=O)O)cc4)cc3)NC(=O)CNC(=O)[C@@H](C)N(C)C(=O)[C@H](CC(=O)O)NC(=O)[C@H]([C@@H](C)c3c[nH]c4cccc(Cl)c34)NC(=O)[C@@H]3C[C@@H](N)CN3C(=O)CNC(=O)[C@H](Cc3ccc(C(=O)O)cc3)NC(=O)[C@H](Cc3c[nH]c4ccccc34)NC2=O)cc1

target: Recombinant human IL-1β (BioLegend 579404) (human, UniProt P01584 117-269); experiment: cell-based or functional assay

Binder | MRC5 IC50
B1 | 0.379 nM
B2 | 0.636 nM
B3 | 0.0828 nM
B4 | 0.766 nM
B5 | 0.0457 nM
B6 | 0.09 nM
B7 | 0.114 nM
B8 | 0.37 nM
B9 | 0.37 nM
B10 | 0.064 nM
B11 | 0.0498 nM
B12 | 0.432 nM
B13 | 0.31 nM
